T1: hPolη (human DNA polymerase eta) (Homo sapiens, UniProt Q9Y253 1-713)
T1 sequence: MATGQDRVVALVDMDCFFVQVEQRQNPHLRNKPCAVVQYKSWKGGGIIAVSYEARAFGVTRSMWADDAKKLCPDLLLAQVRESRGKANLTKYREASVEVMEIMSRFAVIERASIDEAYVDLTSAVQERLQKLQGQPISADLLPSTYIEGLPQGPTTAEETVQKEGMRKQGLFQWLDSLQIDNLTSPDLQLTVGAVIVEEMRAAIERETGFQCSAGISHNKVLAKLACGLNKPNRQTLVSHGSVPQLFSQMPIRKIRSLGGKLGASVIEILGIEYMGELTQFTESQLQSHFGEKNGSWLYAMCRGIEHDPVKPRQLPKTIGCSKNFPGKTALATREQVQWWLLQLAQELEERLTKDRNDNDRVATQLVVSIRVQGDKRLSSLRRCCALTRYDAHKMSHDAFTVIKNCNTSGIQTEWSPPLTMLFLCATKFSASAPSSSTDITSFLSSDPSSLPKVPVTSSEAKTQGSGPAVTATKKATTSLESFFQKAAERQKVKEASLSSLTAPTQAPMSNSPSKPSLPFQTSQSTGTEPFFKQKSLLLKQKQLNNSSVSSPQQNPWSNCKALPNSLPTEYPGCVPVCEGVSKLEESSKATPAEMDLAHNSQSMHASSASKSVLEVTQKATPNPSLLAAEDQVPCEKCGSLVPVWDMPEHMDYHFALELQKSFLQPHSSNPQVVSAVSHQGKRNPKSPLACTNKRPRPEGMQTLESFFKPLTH

B1: 18/26-mer-dGC8-N-ABA (dsDNA)
DNA 1: AACGACGGCCAGTGAATT
DNA 2: CCCGCGCGAATTCACTGGCCGTCGTT
modifications: template dG at position 21 from 3' end (6 from 5' end) is N-(2'-deoxyguanosin-8-yl)-3-aminobenzanthrone
B2: 20/26-mer-dGC8-N-ABA (dsDNA)
DNA 1: AACGACGGCCAGTGAATTCG
DNA 2: CCCGCGCGAATTCACTGGCCGTCGTT
modifications: template dG at position 21 from 3' end (6 from 5' end) is N-(2'-deoxyguanosin-8-yl)-3-aminobenzanthrone
B3: 21/26-mer (dsDNA)
DNA 1: AACGACGGCCAGTGAATTCGC
DNA 2: CCCGCGCGAATTCACTGGCCGTCGTT
B4: 20/26-mer (dsDNA)
DNA 1: AACGACGGCCAGTGAATTCG
DNA 2: CCCGCGCGAATTCACTGGCCGTCGTT
B5: 22/26-mer-dGC8-N-ABA (dsDNA)
DNA 1: AACGACGGCCAGTGAATTCGCG
DNA 2: CCCGCGCGAATTCACTGGCCGTCGTT
modifications: template dG at position 21 from 3' end (6 from 5' end) is N-(2'-deoxyguanosin-8-yl)-3-aminobenzanthrone
B6: 22/26-mer (dsDNA)
DNA 1: AACGACGGCCAGTGAATTCGCG
DNA 2: CCCGCGCGAATTCACTGGCCGTCGTT
B7: 19/26-mer (dsDNA)
DNA 1: AACGACGGCCAGTGAATTC
DNA 2: CCCGCGCGAATTCACTGGCCGTCGTT
B8: 19/26-mer-dGC8-N-ABA (dsDNA)
DNA 1: AACGACGGCCAGTGAATTC
DNA 2: CCCGCGCGAATTCACTGGCCGTCGTT
modifications: template dG at position 21 from 3' end (6 from 5' end) is N-(2'-deoxyguanosin-8-yl)-3-aminobenzanthrone
B9: 18/26-mer (dsDNA)
DNA 1: AACGACGGCCAGTGAATT
DNA 2: CCCGCGCGAATTCACTGGCCGTCGTT
B10: 21/26-mer-dGC8-N-ABA (dsDNA)
DNA 1: AACGACGGCCAGTGAATTCGC
DNA 2: CCCGCGCGAATTCACTGGCCGTCGTT
modifications: template dG at position 21 from 3' end (6 from 5' end) is N-(2'-deoxyguanosin-8-yl)-3-aminobenzanthrone

The binders below were run against T1, hPolη (human DNA polymerase eta) (assay: EMSA).
With B1 the Kd was 32 ± 5 nM. For B2, the Kd was 12 ± 2 nM. With B3 the Kd was 26 ± 1 nM. Work on B4 yielded a Kd of 23 ± 2 nM. In the case of B5, the Kd is reported as 24 ± 4 nM. For B6, the Kd was 17 ± 6 nM. With B7 the Kd was 25 ± 5 nM. Binder B8 has a Kd of 12 ± 2 nM. Work on B9 yielded a Kd of 28 ± 3 nM. For B10, the Kd was 26 ± 7 nM.

Reference: paper PMC5048595
